Square brackets hold non-standard residues; d marks the D form. Ends that are not written are not given here. Tyr(3-NO2) = N[C@@H](Cc1ccc(O)c([N+](=O)[O-])c1)C(=O)O; 2Abz = Nc1ccccc1C(=O)O
Experiments:
Format in all cases: biochemical
[1] = target: Kallikrein-3 (Homo sapiens, UniProt P07288); assay: FRET peptide cleavage efficiency with Kallikrein-3; conditions: peptide 200 uM, Kallikrein-3 2 μg/ml, 37° C., pH 8
[2] = target: uPA (Homo sapiens, UniProt P00749); assay: FRET peptide cleavage efficiency with uPA; conditions: 200 uM linker, 1 ug/ml protease, 37° C., buffer A pH 8.5
[3] = target: T1, matriptase (Homo sapiens, UniProt Q9Y5Y6); assay: FRET peptide cleavage efficiency with matriptase; conditions: 200 uM linker, 1 ug/ml protease, 37° C., buffer B pH 9.0
T1 construct: purchased R&D Systems 3946-SEB
T1 sequence (Q9Y5Y6 615-855 limits assumed): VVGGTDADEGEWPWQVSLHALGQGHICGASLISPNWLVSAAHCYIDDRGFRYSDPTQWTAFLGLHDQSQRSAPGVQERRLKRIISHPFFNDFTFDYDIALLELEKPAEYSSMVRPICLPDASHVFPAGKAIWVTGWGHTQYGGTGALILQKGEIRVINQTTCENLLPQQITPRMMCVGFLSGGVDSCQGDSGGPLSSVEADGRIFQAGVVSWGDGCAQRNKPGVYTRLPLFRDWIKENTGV

[4] = target: T2, MMP-2 (Homo sapiens, UniProt P08253); assay: FRET peptide cleavage efficiency with MMP-2
T2 construct: purchased SIGMA PF023
T2 sequence (P08253 110-660): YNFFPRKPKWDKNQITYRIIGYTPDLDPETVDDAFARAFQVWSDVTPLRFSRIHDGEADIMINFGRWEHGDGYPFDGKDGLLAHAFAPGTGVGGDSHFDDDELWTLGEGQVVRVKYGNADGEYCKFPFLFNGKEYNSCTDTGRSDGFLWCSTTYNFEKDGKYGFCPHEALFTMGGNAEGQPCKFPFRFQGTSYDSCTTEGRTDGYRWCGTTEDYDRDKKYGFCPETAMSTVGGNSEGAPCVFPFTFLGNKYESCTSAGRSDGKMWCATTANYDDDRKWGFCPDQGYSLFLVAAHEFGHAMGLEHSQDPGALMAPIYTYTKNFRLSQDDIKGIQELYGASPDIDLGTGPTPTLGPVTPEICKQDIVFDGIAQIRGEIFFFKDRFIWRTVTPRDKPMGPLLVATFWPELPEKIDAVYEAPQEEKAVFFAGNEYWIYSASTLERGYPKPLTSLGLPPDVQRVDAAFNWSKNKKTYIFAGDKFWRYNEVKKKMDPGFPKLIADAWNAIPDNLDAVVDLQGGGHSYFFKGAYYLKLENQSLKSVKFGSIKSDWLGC

[5] = target: T3, MMP-7 (Homo sapiens, UniProt P09237); assay: FRET peptide cleavage efficiency with MMP-7 (standard pH 7.5; also pH 6.5)
T3 construct: purchased SIGMA CC1059
T3 sequence (P09237 95-267): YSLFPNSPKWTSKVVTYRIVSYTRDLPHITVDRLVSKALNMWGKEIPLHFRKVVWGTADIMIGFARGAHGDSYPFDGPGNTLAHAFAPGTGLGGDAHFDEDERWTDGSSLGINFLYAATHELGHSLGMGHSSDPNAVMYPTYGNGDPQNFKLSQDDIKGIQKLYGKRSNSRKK

[6] = target: T4, MMP-9 (Homo sapiens, UniProt P14780); assay: FRET peptide cleavage efficiency with MMP-9 (standard pH 7.5; also pH 6.5)
T4 construct: purchased SIGMA PF024
T4 sequence (P14780 94-707): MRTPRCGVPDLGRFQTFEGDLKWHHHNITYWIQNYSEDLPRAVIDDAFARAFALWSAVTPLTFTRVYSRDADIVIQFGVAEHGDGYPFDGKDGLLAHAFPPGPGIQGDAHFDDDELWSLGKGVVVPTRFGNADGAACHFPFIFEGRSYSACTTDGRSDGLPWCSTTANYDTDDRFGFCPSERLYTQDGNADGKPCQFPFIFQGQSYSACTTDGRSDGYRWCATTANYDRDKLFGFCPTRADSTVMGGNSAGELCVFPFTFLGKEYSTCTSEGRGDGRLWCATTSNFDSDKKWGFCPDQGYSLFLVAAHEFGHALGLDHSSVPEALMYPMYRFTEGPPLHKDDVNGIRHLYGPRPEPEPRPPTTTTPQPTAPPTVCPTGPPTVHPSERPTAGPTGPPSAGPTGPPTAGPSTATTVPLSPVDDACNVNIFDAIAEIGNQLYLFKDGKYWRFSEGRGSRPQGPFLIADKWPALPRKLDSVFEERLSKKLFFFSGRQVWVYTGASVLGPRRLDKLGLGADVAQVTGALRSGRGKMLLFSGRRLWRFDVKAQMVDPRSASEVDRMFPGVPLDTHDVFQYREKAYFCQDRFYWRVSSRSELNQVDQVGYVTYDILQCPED

Kallikrein-3, sequence (P07288 25-261, species assumed): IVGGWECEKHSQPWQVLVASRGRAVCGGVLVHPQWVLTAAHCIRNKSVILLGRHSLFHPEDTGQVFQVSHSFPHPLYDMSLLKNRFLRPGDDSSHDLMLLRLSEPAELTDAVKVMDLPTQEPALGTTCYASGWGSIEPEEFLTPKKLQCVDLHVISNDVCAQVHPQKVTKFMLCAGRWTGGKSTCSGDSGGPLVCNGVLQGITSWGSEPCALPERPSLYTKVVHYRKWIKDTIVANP

Kallikrein-3 t = 1 h % cleavage ([1]; t = 1 h): 7%
Kallikrein-3 t = 3 h % cleavage ([1]; t = 3 h): 20%
Kallikrein-3 t = 6 h % cleavage ([1]; t = 6 h): 37%
Kallikrein-3 t = 8 h % cleavage ([1]; t = 8 h): 45%
% cleavage uPA t = 15 min ([2]; t = 15 min): 0%
% cleavage uPA t = 60 min ([2]; t = 60 min): 0%
% cleavage uPA t = 120 min ([2]; t = 120 min): 0%
% cleavage Matriptase t = 15 min ([3]; t = 15 min): 9%
% cleavage Matriptase t = 60 min ([3]; t = 60 min): 35%
% cleavage Matriptase t = 120 min ([3]; t = 120 min): 62%
% cleavage MMP-2 t = 15 min ([4]; t = 15 min (Table 9)): 82%
% cleavage MMP-2 t = 15 min ([4]; t = 15 min, 200 uM linker, 1 ug/ml protease, 37° C., buffer C pH 7.5): 82%
% cleavage MMP-2 t = 60 min ([4]; t = 60 min (Table 9)): 100%
% cleavage MMP-2 t = 60 min ([4]; t = 60 min, 200 uM linker, 1 ug/ml protease, 37° C., buffer C pH 7.5): 100%
% cleavage MMP-2 t = 120 min ([4]; t = 120 min (Table 9)): 100%
% cleavage MMP-2 t = 120 min ([4]; t = 120 min, 200 uM linker, 1 ug/ml protease, 37° C., buffer C pH 7.5): 100%
% cleavage MMP-7 t = 15 min ([5]; t = 15 min (Table 9)): 2%
% cleavage MMP-7 t = 60 min ([5]; t = 60 min (Table 9)): 3%
% cleavage MMP-7 t = 120 min ([5]; t = 120 min (Table 9)): 0%
% cleavage MMP-9 t = 15 min ([6]; t = 15 min (Table 9)): 23%
% cleavage MMP-9 t = 60 min ([6]; t = 60 min (Table 9)): 93%
% cleavage MMP-9 t = 120 min ([6]; t = 120 min (Table 9)): 100%
Sequence: SGRHSSKLQPLGYFGKL ([2Abz]SGRHSSKLQPLGYFGKL[Tyr(3-NO2)]-NH2) [LNK063]

Reference: US20240400614A1, “CLEAVABLE PEPTIDES AND METHODS OF USE THEREOF” (Bright Peak Therapeutics AG, priority 2023, published 2024)
